A short description of the data set: self-splicing fitness, log relative to wild type (ln ratio); higher = more splicing; Tetrahymena group I intron in knt gene, E. coli kanamycin selection, DiMSum; sequences stand for … in CUCUCU…GGAGGGAAAAGUUAUCAGGCAUGCACCUGGUAGCUAGUCUUUAAACCAAUAGAUUGCAUCGGUUUAAAAGGCAAGACCGUCAAAUUGCGGGAAAGGGGUCAACAGCCGUUCAGUACCAAGUCUCAGGGGAAACUUUGAGAUGGCCUUGCAAAGGGUAUGGUAAUAAGCUGACGGACAUGGUCCUAACCACGCAGCCAAGUCCUAAGUCAACAGAUCUUCUGUUGAUAUGGAUGCAGUUCACAGACUAAAUGUCGGUCGGGGAAGAUGUAUUCUUCUCAUAAGAUAUAGUCGGACCUCUCCUUAAUGGGAGCUAGCGGAUGAAGUGAUGCAACACUGGAGCCGCUGGGAACUAAUUUGUAUGCGAAAGUAUAUUGAUUAGUUUUGGAGUACUCGUGGUCG
The method, boiled down: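 A randomised library covering all eight P1ex-region intron nucleotides was built with the intron in the knt kanamycin-resistance gene on pET-22b(+) and held in E. coli BL21(DE3). Cells were grown overnight at 37°C or 30°C on LB agar, with or without 25 μg/mL kanamycin, plus 100 μg/mL carbenicillin, 50 μM IPTG and 0.2% rhamnose, and pooled colonies were amplicon-sequenced on an Illumina HiSeq 2500. DiMSum fitness is the error-weighted combination of wild-type-normalised replicate fold changes, kanamycin versus none.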

± gives the uncertainty stated by the source.

With AGACAGCAAUAUUACGGCCU, the “self-splicing fitness (ln)” value runs as follows: (30 °C) -1.2 ± 0.085; (37 °C) -0.234 ± 0.09.

As to AGACAGCAAUAUUACGGGCC, the “self-splicing fitness (ln)” value is -1.45 ± 0.1 (30 °C) and -1.21 ± 0.11 (37 °C).

As for AGACAGCAAUAUUACGGUAG, the “self-splicing fitness (ln)” value reads like this: (30 °C) -3.97 ± 0.22; (37 °C) -0.604 ± 0.092.

Turning to AGACAGCAAUAUUACGGUGC, the “self-splicing fitness (ln)” value (30 °C) is -2.82 ± 0.18 and the “self-splicing fitness (ln)” value (37 °C) was -1.89 ± 0.18. On the same counts, the results for AGACAGCAAUAUUACGUACU are -0.834 ± 0.062 and -0.36 ± 0.086. The corresponding values for AGACAGCAAUAUUACGUAGC are -2.07 ± 0.19 and -2.14 ± 0.23. On the same counts, the results for AGACAGCAAUAUUACGUAUC are -3.63 ± 0.16 and -1.52 ± 0.15.

AGACAGCAAUAUUACGUCAC: the “self-splicing fitness (ln)” value is, setting by setting: (30 °C) -3 ± 0.23; (37 °C) -3.41 ± 0.19. On the same counts, the results for AGACAGCAAUAUUACGUGAA are -2.03 ± 0.14 and -0.982 ± 0.15. In the case of AGACAGCAAUAUUACGUGGA, the “self-splicing fitness (ln)” value was -3.96 ± 0.24 (30 °C) and -2.37 ± 0.2 (37 °C).

Turning to AGACAGCAAUAUUACGUGGU, the “self-splicing fitness (ln)” value reads like this: (30 °C) -3.66 ± 0.14; (37 °C) -2.13 ± 0.12. On the same counts, the results for AGACAGCAAUAUUACGUUGG are -1.95 ± 0.094 and -1.99 ± 0.14. The corresponding values for AGACAGCAAUAUUACGUUUC are -4.68 ± 0.36 and -3.7 ± 0.42. On to AGAGAGCAAUAUUACGAAAG, for which the “self-splicing fitness (ln)” value reads like this: (30 °C) -4.41 ± 0.27; (37 °C) -2.42 ± 0.22. As to AGAGAGCAAUAUUACGACAC, the “self-splicing fitness (ln)” value (37 °C) was -1.4 ± 0.26. Still for that read-out and setting: the value for AGAGAGCAAUAUUACGAUAA was -2.71 ± 0.28. The same measure, in the same setting: the value for AGAGAGCAAUAUUACGCAAC was -1.44 ± 0.2. For AGAGAGCAAUAUUACGCCAA, the “self-splicing fitness (ln)” value is -2.71 ± 0.2 (30 °C) and -3.06 ± 0.43 (37 °C). On the same counts, the results for AGAGAGCAAUAUUACGCCAG are -3.51 ± 0.35 and -2.94 ± 0.38. On the same counts, the results for AGAGAGCAAUAUUACGCGUG are -3.83 ± 0.36 and -1.44 ± 0.18. On the same counts, the results for AGAGAGCAAUAUUACGGACG are -2.64 ± 0.3 and -1.61 ± 0.44. With AGAGAGCAAUAUUACGGGGA, the “self-splicing fitness (ln)” value runs as follows: (30 °C) -2.46 ± 0.25; (37 °C) -1.84 ± 0.28.

As to AGAGAGCAAUAUUACGUAAA, the “self-splicing fitness (ln)” value runs as follows: (30 °C) -3.76 ± 0.31; (37 °C) -3.12 ± 0.31.

For the sequence AGAGAGCAAUAUUACGUCAC, under “37 °C”, the “self-splicing fitness (ln)” value is -0.851 ± 0.42.

As for AGAGAGCAAUAUUACGUCUC, the “self-splicing fitness (ln)” value is, setting by setting: (30 °C) -2.95 ± 0.43; (37 °C) -3.37 ± 0.47. In the case of AGAGAGCAAUAUUACGUGAC, for the setting “37 °C”, the “self-splicing fitness (ln)” value was -1.43 ± 0.42. On to AGAUAGCAAUAUUACGACAU, for which the “self-splicing fitness (ln)” value reads like this: (30 °C) -0.0342 ± 0.013; (37 °C) 0.0833 ± 0.033. On the same counts, the results for AGAUAGCAAUAUUACGACGU are 0.446 ± 0.097 and 0.203 ± 0.098. The corresponding values for AGAUAGCAAUAUUACGAGCG are -0.464 ± 0.12 and -1.08 ± 0.15.

With AGAUAGCAAUAUUACGCAUA, the “self-splicing fitness (ln)” value reads like this: (30 °C) -2.23 ± 0.16; (37 °C) -0.55 ± 0.18. On the same counts, the results for AGAUAGCAAUAUUACGGCAG are -0.945 ± 0.12 and -0.735 ± 0.14. The corresponding values for AGAUAGCAAUAUUACGGGGC are -2.65 ± 0.2 and -3.29 ± 0.37. The corresponding values for AGAUAGCAAUAUUACGGUUG are -3.03 ± 0.17 and -2.57 ± 0.29. In the case of AGAUAGCAAUAUUACGUAGG, the “self-splicing fitness (ln)” value (30 °C) was -3.49 ± 0.17 and the “self-splicing fitness (ln)” value (37 °C) is -1.41 ± 0.18. The corresponding values for AGAUAGCAAUAUUACGUCAA are -1.15 ± 0.09 and -1.03 ± 0.1. The corresponding values for AGAUAGCAAUAUUACGUCGG are -1.52 ± 0.14 and -1.26 ± 0.16.

Consider AGAUAGCAAUAUUACGUGAG, for which the “self-splicing fitness (ln)” value is, setting by setting: (30 °C) -1.89 ± 0.072; (37 °C) -0.685 ± 0.08.

On to AGAUAGCAAUAUUACGUGGA, for which the “self-splicing fitness (ln)” value (30 °C) is -3.21 ± 0.25 and the “self-splicing fitness (ln)” value (37 °C) was -2.37 ± 0.28. For AGAUAGCAAUAUUACGUGUG, the “self-splicing fitness (ln)” value (30 °C) was -2.48 ± 0.097 and the “self-splicing fitness (ln)” value (37 °C) was -0.626 ± 0.098. Turning to AGCAAGCAAUAUUACGAAGU, the “self-splicing fitness (ln)” value (30 °C) is -3.42 ± 0.27 and the “self-splicing fitness (ln)” value (37 °C) is -1.58 ± 0.25.

For the sequence AGCAAGCAAUAUUACGACAA, the “self-splicing fitness (ln)” value is, setting by setting: (30 °C) -1.54 ± 0.15; (37 °C) -0.436 ± 0.14.

Consider AGCAAGCAAUAUUACGACAG, for which the “self-splicing fitness (ln)” value reads like this: (30 °C) -2.65 ± 0.14; (37 °C) -1.45 ± 0.15. On the same counts, the results for AGCAAGCAAUAUUACGCCAU are -3.14 ± 0.18 and -1.63 ± 0.13. On the same counts, the results for AGCAAGCAAUAUUACGCCCC are 0.415 ± 0.15 and -0.728 ± 0.18. The corresponding values for AGCAAGCAAUAUUACGCUCC are -3.78 ± 0.4 and -1.58 ± 0.39. AGCAAGCAAUAUUACGCUGC: the “self-splicing fitness (ln)” value reads like this: (30 °C) -1.58 ± 0.2; (37 °C) -3.1 ± 0.31.

Consider AGCAAGCAAUAUUACGCUUA, for which the “self-splicing fitness (ln)” value (30 °C) was -2.94 ± 0.15 and the “self-splicing fitness (ln)” value (37 °C) was -1.71 ± 0.11. The corresponding values for AGCAAGCAAUAUUACGGAAU are -3.44 ± 0.15 and -0.957 ± 0.093. On the same counts, the results for AGCAAGCAAUAUUACGGCUA are -1.07 ± 0.088 and -0.869 ± 0.093.

For the sequence AGCAAGCAAUAUUACGGGGA, the “self-splicing fitness (ln)” value reads like this: (30 °C) -2.7 ± 0.14; (37 °C) -2.1 ± 0.14. On the same counts, the results for AGCAAGCAAUAUUACGGUAC are -4.18 ± 0.2 and -2.16 ± 0.16. The corresponding values for AGCAAGCAAUAUUACGGUAU are -2.35 ± 0.075 and -0.546 ± 0.068. On the same counts, the results for AGCAAGCAAUAUUACGUAUA are -2.91 ± 0.15 and -1.85 ± 0.15. For AGCAAGCAAUAUUACGUAUC, the “self-splicing fitness (ln)” value is, setting by setting: (30 °C) -3.34 ± 0.26; (37 °C) -1.41 ± 0.2. Regarding AGCAAGCAAUAUUACGUAUG, the “self-splicing fitness (ln)” value (30 °C) is -3.61 ± 0.14 and the “self-splicing fitness (ln)” value (37 °C) is -3.29 ± 0.18. On the same counts, the results for AGCAAGCAAUAUUACGUCAG are -2.89 ± 0.16 and -1.55 ± 0.18. On the same counts, the results for AGCAAGCAAUAUUACGUCAU are -1.5 ± 0.078 and -1.23 ± 0.084.

As for AGCAAGCAAUAUUACGUCCU, the “self-splicing fitness (ln)” value was 0.639 ± 0.099 (30 °C) and 0.541 ± 0.11 (37 °C). On to AGCAAGCAAUAUUACGUCGA, for which the “self-splicing fitness (ln)” value is -1.99 ± 0.11 (30 °C) and -0.323 ± 0.097 (37 °C).

As to AGCAAGCAAUAUUACGUUCA, the “self-splicing fitness (ln)” value is, setting by setting: (30 °C) -0.99 ± 0.081; (37 °C) -0.464 ± 0.1. Take AGCAAGCAAUAUUACGUUUU: the “self-splicing fitness (ln)” value by setting is: (30 °C) -2.46 ± 0.077; (37 °C) -1.71 ± 0.09. The corresponding values for AGCCAGCAAUAUUACGAAAC are -3.51 ± 0.48 and -1.38 ± 0.26. As to AGCCAGCAAUAUUACGAAGG, the “self-splicing fitness (ln)” value runs as follows: (30 °C) -3.89 ± 0.41; (37 °C) -2.92 ± 0.31. On the same counts, the results for AGCCAGCAAUAUUACGACGG are -4.18 ± 0.42 and -1.35 ± 0.25. Consider AGCCAGCAAUAUUACGAGCC, for which, for the setting “37 °C”, the “self-splicing fitness (ln)” value was -0.75 ± 0.32. Consider AGCCAGCAAUAUUACGCAAA, for which the “self-splicing fitness (ln)” value runs as follows: (30 °C) -2.91 ± 0.34; (37 °C) -2.36 ± 0.2. The corresponding values for AGCCAGCAAUAUUACGCAGG are -3.44 ± 0.14 and -2.62 ± 0.18. AGCCAGCAAUAUUACGCAUG: the “self-splicing fitness (ln)” value (30 °C) is -2.87 ± 0.11 and the “self-splicing fitness (ln)” value (37 °C) is -2.2 ± 0.12. On the same counts, the results for AGCCAGCAAUAUUACGCGAU are -1.24 ± 0.14 and -2.93 ± 0.32. On the same counts, the results for AGCCAGCAAUAUUACGCGUA are -1.99 ± 0.13 and -1.44 ± 0.14.

As for AGCCAGCAAUAUUACGGAGU, the “self-splicing fitness (ln)” value was -2.69 ± 0.19 (30 °C) and -1.66 ± 0.14 (37 °C). On the same counts, the results for AGCCAGCAAUAUUACGGGGC are -3.88 ± 0.15 and -3.13 ± 0.14. The corresponding values for AGCCAGCAAUAUUACGUCCU are -0.436 ± 0.071 and 0.142 ± 0.078. On the same counts, the results for AGCCAGCAAUAUUACGUCGU are -1.75 ± 0.072 and -1.58 ± 0.086.

Consider AGCCAGCAAUAUUACGUGCG, for which the “self-splicing fitness (ln)” value was -0.906 ± 0.077 (30 °C) and -0.256 ± 0.087 (37 °C).

AGCGAGCAAUAUUACGAACA: the “self-splicing fitness (ln)” value is, setting by setting: (30 °C) -2.63 ± 0.23; (37 °C) -1.89 ± 0.2. Consider AGCGAGCAAUAUUACGACGA, for which the “self-splicing fitness (ln)” value (30 °C) was -1.13 ± 0.22 and the “self-splicing fitness (ln)” value (37 °C) was -2.2 ± 0.31.

Values taken from the supplement of paper PMC7877785.
